Laboratory results from the nanobody polyreactivity screen of Harvey et al. (2022).

Assay: yeast display, Sf9 membrane polyspecificity reagent, FACS + sequencing; frameworks hold sequencing errors
Procedure, shortened: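 In a synthetic yeast display library (Saccharomyces cerevisiae BJ5465), nanobody expression was induced with galactose for 36–48 hours. FACS gates were set low and high (top ~1%) using anti-HA fluorescence for expression and streptavidin fluorescence for binding of the Sf9 membrane reagent. Each polyreactivity label is drawn from the gate of origin.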

Row | Sequence | polyreactivity (PSR sort gate)
1 | QVQLVESGGGLVQAGGSLRLSCAASGRTFLALGWYRPAPGKERELVAAISRTNYADSVKGRVTISRDNAKNTVYLQMHSLKPEETAVYYCAKEYYSYEGYLGLSYVRRYDYWGQGTQVTVSS | low polyreactivity
2 | QVQLVESGGGLVQAGGSLRLSCAASGRTFLFYAMGWYRQAPGKERELVASITLNGGSTYYADSVKGRFTISRDNAKNTVYLQMNSLKPEETAVYYCNKRTRYQIGYGYWGQGTQVTVSS | low polyreactivity
3 | QVQLVESGGGLVQAGGSLRLSCAASGRTFLGYTMGWYRQAPGKERELVAAITSGGSTYYADSVKGRFTISRDNAKNPVYLQMNSLKPEDTAVYYCARGYFEQVQYWYDNEYDFWGQGTQVTGSS | low polyreactivity
4 | QVQLVESGGGLVQAGGSLRLSCAASGRTFLIYAMGWSRPAPGKERELVAAINFSGGNTYNADSVKGRFTISRDNAKHTVYLQMNSLKPEDTAVYYCAAGVYSFRYDYWGQGTQVTVSS | low polyreactivity
5 | QVQLVESGGGLVQAGGSLRLSCAASGRTFLIYAMGWYRQAPGKERELVAAITSGGRTKYADSVKGRFTISRDNAKNTVYLQMNSLKPEDTAVYYCAAESNRLRYYYWGQGTQVTVSS | high polyreactivity
6 | QVQLVESGGGLVQAGGSLRLSCAASGRTFLIYAMGWYRQAPGKERELVAGITRGSTTYADSVKGRFTISRDNAKNTVYLQMNSLKPEDTEVYYCAARNYSVATYGEYDYWGQGTQVTVSS | high polyreactivity
7 | QVQLVESGGGLVQAGGSLRLSCAASGRTFLLNAMGWYRQAPGKERELVAAITGSGGRTNYADSVKGRFTISRDNAKNTVYLQMNSLKPEDTAVYYCNARFPDWALSEISHSTTYGYWGQGTQVTVSS | low polyreactivity
8 | QVQLVESGGGLVQAGGSLRLSCAASGRTFLRNAMGWYRQAPGKERELVAAISWRGGSTYYADSLKGRFTISRDNAKNTVYLQMNSLKPEDTAVYYCNARDGLASDWGQGTQVTVSS | high polyreactivity
9 | QVQLVESGGGLVQAGGSLRLSCAASGRTFLRYAMGWYRQAPRKERELVAAISVSGASTNYADSVKGRFTISRDYAKNTVYLQMNSLKPEDTAVYYCAARVADYDGVPLYRHGDYWGQGTQVTVSS | low polyreactivity
10 | QVQLVESGGGLVQAGGSLRLSCAASGRTFLSYAMGWYRQAPGKERELVAAITSSGGTTNYADSVKGRFTISRDNAKNTVYLQMNSLKPEDTAVYYCAAYSWYFGSRYDYWGQGTQVTVSS | low polyreactivity
11 | QVQLVESGGGLVQAGGSLRLSCAASGRTFLTNAMGWYRQAAGKERELVAAITSSGGNTYYADSVKGRFTISRDNAKNTVYLQMNSLKPEDTAVYYCAAPGYVWYGGRWVYRYYYWGQGTQVTVSS | high polyreactivity
12 | QVQLVESGGGLVQAGGSLRLSCAASGRTFLTNAMGWYRQAPGKERELVAAITSSGGSTYYADSVKGRFTISRDNAKNTVYLLMNSLKPEDTAVYYCNKKSALYRRYDYWGQGTQVTVSS | low polyreactivity
13 | QVQLVESGGGLVQAGGSLRLSCAASGRTFLVNAMGWYRQAPGKERELVAAISQRGGSTDYADSVKGRFTISRDNAKNTVYLQMNSLKPEDTAVYYCAVRWGYLYDYWGQGTQVTVSS | low polyreactivity
14 | QVQLVESGGGLVQAGGSLRLSCAASGRTFLVNAMGWYRQAPGKERELVAVMTRGGSTNYADSVKGRFTISRDNAKNTVYLQMNSLKPEDTAVYYCAKQFSPYRSYGPVVRYDYWGQGTQVTVSS | low polyreactivity
15 | QVQLVESGGGLVQAGGSLRLSCAASGRTFLVNAMGWYRQAPGKEREYVAAINFSVGTTTYADSVKGRFTISRDNAKNTVYLQMNSLKPEDTAVYYCNTYGRYWYIREDYWGQGTQVTVSS | high polyreactivity
16 | QVQLVESGGGLVQAGGSLRLSCAASGRTFLVYAMGWYRQAPGKERELVAAISSDGSTNYADSVKGRFTISRDNAKNTVYLQMNSLKPEDTAVYYCARDGRTEHRGFDYWGQGTQVTVSS | low polyreactivity
17 | QVQLVESGGGLVQAGGSLRLSCAASGRTFLYNTMGWYRQAPGKERELVAVISIDGGGTYADSVKGRFTISRDNAKNNVYLQMNSLKPEDTAVYDCAVDALCITYGYWGQGTQVTVSS | low polyreactivity
18 | QVQLVESGGGLVQAGGSLRLSCAASGRTFLYYAMGWYRQAPGKERELVAAISSGGSTNYADSVKGRFTISRDNAKNTVYLQMNSLKPEDTAVYYCNADYTSRDTSDVIYEYDYWGQGTQVTVSS | low polyreactivity
19 | QVQLVESGGGLVQAGGSLRLSCAASGRTFLYYAMGWYRQAPGKERELVAGITSGGSTNYADSVKGRFTITRDNAKNTVYLQMNSLKPEDTAVYYCAVDQGYSRTADVNYDYWGQGTQVTVSS | low polyreactivity
20 | QVQLVESGGGLVQAGGSLRLSCAASGRTFLYYTMGWYRQAPGKERELVAAITSGTSTNYADSVKGRFTISRDNAKNTVYLQMNSLKPEDTAVYYCNKRAARSLNGYPLYGYYYWGQGTQVTVSS | low polyreactivity
21 | QVQLVESGGGLVQAGGSLRLSCAASGRTFNGNTMGWYRQAPGKERELVAAISRRGGSTYYADSVKGRFTISRDTAKNTVYLQMNSLKPEVTAVYYCATHSTFGYDYWGQGTQVTVSS | high polyreactivity

Row | Sequence | polyreactivity (PSR sort gate)
22 | QVQLVESGGGLVQAGGSLRLSCAASGRTFNGYAMGWYRQAPGKERELVASISRDGSTNYADSVKGRFTISRDNAKNTVYLQMNSLKPEDTAVYYCAADIWYYRYPIYYYSYDYWGQGTQVTVSS | low polyreactivity
23 | QVQLVESGGGLVQAGGSLRLSCAASGRTFNHNPMRWYRQAPGKERELVAAISYSGGGTYYADSVKGRFTFSRDNAKNSVYLQMNSLKPEDTAVYFCAAYPVRGAYGYWGQGTQVTVSS | low polyreactivity
24 | QVQLVESGGGLVQAGGSLRLSCAASGRTFNINAMGWYRPAPGKERELVASISWGGGRTYSADSVKGRFTISRDNAKNTVYLQKNSLKPEDPAVYYCAADYAGNKGVPYYYKYNYWGQGTQVTVSS | high polyreactivity
25 | QVQLVESGGGLVQAGGSLRLSCAASGRTFNIYAMGWYRQAPGKERELVAAITFTGGNTYYADSVKGRFTISRDNAKNTVYLQMNSLKPEDTAVYYCNKRLKWRSYDYWGQGTQVTVSS | low polyreactivity
26 | QVQLVESGGGLVQAGGSLRLSCAASGRTFNRNAMGWYRQAPRKERELVAAISRGGTTSYADSVKGRFTISRDNAKNTVYLQMNSLQPEDTAVYYCAAEPYIQWVYYRGNGRRYGYWGQGTQVTVSS | high polyreactivity
27 | QVQLVESGGGLVQAGGSLRLSCAASGRTFNRYAMGWYRQAPGKEREFVASITRSGGSTYYADSVKGRFTISRDNAKNTVYLQMNSLKPEDTAVYYCAAQLRYKYDYWGQGTQVTVSS | high polyreactivity
28 | QVQLVESGGGLVQAGGSLRLSCAASGRTFNSHVMRWYRQAPGKERELVAAISSRGGGTYYADSVKGRFTISRDNAKNTVYLQMNSLNPEDTAVYYCITVVSRSYRDGPPDPYDSWGQGTQVTVSS | high polyreactivity
29 | QVQLVESGGGLVQAGGSLRLSCAASGRTFNSYAMGWYRQAPGKERELVASISSGGSTYYADSVKGRFTLSRDNAKHTDYLQMNSLKPEDTAVYYCAAKSVAYYSYFRRDYWGQGTQVTVSS | low polyreactivity
30 | QVQLVESGGGLVQAGGSLRLSCAASGRTFNVYAMGWYRQAPGKETELVAVITNGGSTNYADSVKGRFTISRDNAKNTVYFQMNSLKPEDTAVYYCAAREDLYLYYNGQRVQYDYCGQGTQVTVSS | low polyreactivity
31 | QVQLVESGGGLVQAGGSLRLSCAASGRTFNWNAMGWYRQAPGKESEFVADISGRGGSTYYADSVKGRFTISRDNAKNTVYLQMNSLKPEETAVYYCAARPRFLRASVEFDYWGQGTQVTVSS | high polyreactivity
32 | QVQLVESGGGLVQAGGSLRLSCAASGRTFNWYAMGWYRQTPGKERELVAGITRIGTTTYYADSVKGRFTISRDNAKITVYLQMNSLKPEDTAVYYCASDQRKLGADFDSWGQGTQVTVSS | high polyreactivity
33 | QVQLVESGGGLVQAGGSLRLSCAASGRTFNYYAMGWYRQAPGKERELVAAISWGGGRTYYADSVKGRFTISRDNAKNTVYFQMNSLKPEDTAVFDCAARYLQLGLAYYYWGQGTQVTVSS | high polyreactivity
34 | QVQLVESGGGLVQAGGSLRLSCAASGRTFNYYAMGWYRQAPGKERELVAAISWSGTPTYYADSVKGRFTISRDNAKNTVYLQMNSLKPEDTAVYYCAAYLVSYPRGNYIRYDYWGQGTQVTVSS | low polyreactivity
35 | QVQLVESGGGLVQAGGSLRLSCAASGRTFPDNAMGWYRQEPGKERELVAVINWGGTSTYYADSVKGRFTISRDNAKNTFYLQMNSLKPEDTAVYYCAARARYPRVGYNYWGQGTQVTVSS | high polyreactivity
36 | QVQLVESGGGLVQAGGSLRLSCAASGRTFPFYAMGWYRQPPAKERELVAVITWRGSNTYADSVKGRFTISRDNAKNTVYLQMNSLKPEVTAVYYCAADAWRSYGYRAYDYWGQVTQVTVSS | low polyreactivity
37 | QVQLVESGGGLVQAGGSLRLSCAASGRTFPGNAMGWYRQAPGKERELVAAISSRGGSTYYADSVKGRFTISRDNAKYTVYFQMNSLKPEDTALYYCARRYLPYGGYYYWGQGTQVTVSS | high polyreactivity
38 | QVQLVESGGGLVQAGGSLRLSCAASGRTFPGNAMGWYRQAPGKERELVATISSGGTTNYADSVKGRFTISRDNAKTTVYLQMNSLKPEDTAVYYCATDTYHHKADYEYWGKGTQVTVSS | low polyreactivity
39 | QVQLVESGGGLVQAGGSLRLSCAASGRTFPGNAMGWYRQAPGKERELVATISSGGTTYYADSVKGRFTISRDNAKNTVYLQMNSLKPEDTAVYYCATDTYHHKADYEYWGQGTQVSVSS | low polyreactivity
40 | QVQLVESGGGLVQAGGSLRLSCAASGRTFPGYAMGWYRQAPGKERELVAAISSSGGSTYYADSVKGRFTISRDNAKNTVYLQMNSLKPEDTAVYYCNAAYRGRLYSWRYGYDYWGQGTQVTVSS | high polyreactivity
41 | QVQLVESGGGLVQAGGSLRLSCAASGRTFPINTMGWYRQAPGKEREFVAAITLGGRTYYADSVKGRFTISRDNAKNTVYLQMNSLKPEDTAVYYCNARTYVRRPLGYWGQGTQVTVSS | high polyreactivity
